According to patent US20240376170A1 (BRIGHT PEAK THERAPEUTICS, published 2024):
Bridges are numbered along the chain shown (N, C = ends). Primed or numbered codes have the meaning given here. [ ]: non-standard residue; d: D form. Ygp(4) = Tyr with amino-capped PEG8 (O-(8x polyethylene glycol-amino)-tyrosine); Yn3(4) = Tyr with azide-capped PEG9 (O-(9x polyethylene glycol-azido)-tyrosine); Ygp = O-(8x polyethylene glycol-amino)-tyrosine (Tyr, amino-capped PEG8); Yn3 = O-(9x polyethylene glycol-azido)-tyrosine (Tyr, azide-capped PEG9); PEG9′ = 9x polyethylene glycol; hSer = N[C@@H](CCO)C(=O)O; Nle = CCCC[C@H](N)C(=O)O

T1: IL-2 receptor βγ complex (human, UniProt P14784 27-551; P31785 23-369)
T1 sequence (looked up) 1: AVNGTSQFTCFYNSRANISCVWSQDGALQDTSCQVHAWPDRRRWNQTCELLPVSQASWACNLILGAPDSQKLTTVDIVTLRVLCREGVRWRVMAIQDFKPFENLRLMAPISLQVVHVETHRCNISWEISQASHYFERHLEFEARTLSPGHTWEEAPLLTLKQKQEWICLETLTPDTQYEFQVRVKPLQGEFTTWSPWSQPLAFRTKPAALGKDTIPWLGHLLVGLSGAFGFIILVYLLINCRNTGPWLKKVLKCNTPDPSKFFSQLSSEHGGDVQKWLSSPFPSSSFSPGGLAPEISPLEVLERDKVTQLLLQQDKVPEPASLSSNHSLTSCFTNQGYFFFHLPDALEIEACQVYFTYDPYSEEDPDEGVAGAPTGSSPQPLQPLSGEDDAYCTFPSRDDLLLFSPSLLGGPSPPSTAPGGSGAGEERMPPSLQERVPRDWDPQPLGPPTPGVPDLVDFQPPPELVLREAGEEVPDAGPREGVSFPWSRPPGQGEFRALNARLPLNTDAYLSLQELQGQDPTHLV
T1 sequence (looked up) 2: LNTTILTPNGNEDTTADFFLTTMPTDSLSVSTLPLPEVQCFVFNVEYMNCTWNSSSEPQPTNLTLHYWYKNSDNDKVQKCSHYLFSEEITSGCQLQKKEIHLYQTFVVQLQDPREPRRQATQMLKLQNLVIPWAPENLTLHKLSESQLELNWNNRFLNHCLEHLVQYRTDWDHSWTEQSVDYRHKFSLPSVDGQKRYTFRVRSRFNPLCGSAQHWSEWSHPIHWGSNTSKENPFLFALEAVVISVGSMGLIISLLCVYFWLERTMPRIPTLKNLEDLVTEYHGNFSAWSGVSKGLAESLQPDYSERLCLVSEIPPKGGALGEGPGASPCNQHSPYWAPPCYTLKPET


target: T1, IL-2 receptor βγ complex; assay: cell-based or functional assay

Row | Average EC50, pSTAT5 Assay in NK cells [nM] | Binder
1 | 53.9 | CMP-168 (ligand, bridge 9-23; not fully specified (bridges); ends not checked; also: sequence of the cleavable bridging peptide not given here) APTSSSTKKTQLQLEHLLLDLQEILNGINNYKNPKLTR[Nle]L[hSer][Yn3(4)]KF[Ygp(4)][Nle]PKKATELKHLQCLEEELKPLEEVL[hSer]LAQSKNFHLRPRDLISNINVIVLELKGSETTF[hSer]CEYADETATIVEFLNRWITFSQSIISTLT

target: T1, IL-2 receptor βγ complex; assay: cell-based or functional assay; remark: another data set of the same source

Row | Binder | Average EC50, pSTAT5 Assay (T cells) [nM]
2 | CMP-305, MMP2 cleaved molecule (ligand, also: m29 after MMP2 cleavage: Glu15-Lys23 cleavable peptide bridge cut, remnants on Glu15 and Lys23 not given here) APTSSSTKKTQLQLEHLLLDLQKILNGINNYKNPKLTR[Nle]L[hSer][Yn3]KF[Ygp][Nle]PKKATELKHLQCLEEELKPLEEVL[hSer]LAQSKNFHLRPRDLISNINVIVLELKGSETTF[hSer]CEYADETATIVEFLNRWITFSQSIISTLT | 3.26
3 | CMP-305 (ligand, bridge 15-23; not fully specified (bridges); also: further groups not given here) APTSSSTKKTQLQLEHLLLDLQKILNGINNYKNPKLTR[Nle]L[hSer][Yn3]KF[Ygp][Nle]PKKATELKHLQCLEEELKPLEEVL[hSer]LAQSKNFHLRPRDLISNINVIVLELKGSETTF[hSer]CEYADETATIVEFLNRWITFSQSIISTLT | 128
4 | CMP-301, MMP2 cleaved molecule (ligand, not fully specified; ends and bridges not checked; also: cleaved by MMP2, product not given here, N-terminus linked to another sequence via PEG9, Glu23 side chain linked to another sequence) APTSSSTKKTQLQLEHLLLDLQEILNGINNYKNPKLTR[Nle]L[hSer][Yn3(4)]KF[Ygp(4)][Nle]PKKATELKHLQCLEEELKPLEEVL[hSer]LAQSKNFHLRPRDLISNINVIVLELKGSETTF[hSer]CEYADETATIVEFLNRWITFSQSIISTLT | 0.883
5 | CMP-169, MMP2 cleaved molecule (ligand, not fully specified; ends and bridges not checked; also: cleaved by MMP2, product not given here, Lys9 side chain linked to another sequence via PEG4, Glu23 side chain linked to another sequence) APTSSSTKKTQLQLEHLLLDLQEILNGINNYKNPKLTR[Nle]L[hSer][Yn3(4)]KF[Ygp(4)][Nle]PKKATELKHLQCLEEELKPLEEVL[hSer]LAQSKNFHLRPRDLISNINVIVLELKGSETTF[hSer]CEYADETATIVEFLNRWITFSQSIISTLT | 5.39
6 | CMP-302 (ligand, lactam N-30; ends not checked) GPLGLAGAPTSSSTKKTQLQLEHLLLDLQEILNGINNYKNPKLTR[Nle]L[hSer][Yn3(4)]KF[Ygp(4)][Nle]PKKATELKHLQCLEEELKPLEEVL[hSer]LAQSKNFHLRPRDLISNINVIVLELKGSETTF[hSer]CEYADETATIVEFLNRWITFSQSIISTLT | 63.4
7 | CMP-168 (ligand, bridge 9-23; not fully specified (bridges); ends not checked; also: sequence of the cleavable bridging peptide not given here) APTSSSTKKTQLQLEHLLLDLQEILNGINNYKNPKLTR[Nle]L[hSer][Yn3(4)]KF[Ygp(4)][Nle]PKKATELKHLQCLEEELKPLEEVL[hSer]LAQSKNFHLRPRDLISNINVIVLELKGSETTF[hSer]CEYADETATIVEFLNRWITFSQSIISTLT | 144
8 | CMP-301 (ligand, lactam N-31; ends not checked) GPLGLAG[PEG9′]APTSSSTKKTQLQLEHLLLDLQEILNGINNYKNPKLTR[Nle]L[hSer][Yn3(4)]KF[Ygp(4)][Nle]PKKATELKHLQCLEEELKPLEEVL[hSer]LAQSKNFHLRPRDLISNINVIVLELKGSETTF[hSer]CEYADETATIVEFLNRWITFSQSIISTLT | 180
9 | CMP-167 (ligand, bridge N-23; not fully specified (bridges); ends not checked; also: sequence of the cleavable peptide in the bridge not given here) APTSSSTKKTQLQLEHLLLDLQKILNGINNYKNPKLTR[Nle]L[hSer][Yn3]KF[Ygp][Nle]PKKATELKHLQCLEEELKPLEEVL[hSer]LAQSKNFHLRPRDLISNINVIVLELKGSETTF[hSer]CEYADETATIVEFLNRWITFSQSIISTLT | 176
10 | CMP-165, MMP2 cleaved molecule (ligand, ends and bridges not checked; also: MMP2 cleaved, cleavage site and linker fragments on N-terminus and Lys23 side chain not given here) APTSSSTKKTQLQLEHLLLDLQKILNGINNYKNPKLTR[Nle]L[hSer][Yn3]KF[Ygp][Nle]PKKATELKHLQCLEEELKPLEEVL[hSer]LAQSKNFHLRPRDLISNINVIVLELKGSETTF[hSer]CEYADETATIVEFLNRWITFSQSIISTLT | 1.42

Further lines, results first:

Row | Average EC50, pSTAT5 Assay (T cells) [nM] | Binder
11 | 97.9 | CMP-303 (ligand, bridge N-29; not fully specified (N-terminus, bridges); ends not checked) PLGLAGAPTSSSTKKTQLQLEHLLLDLQEILNGINNYKNPKLTR[Nle]L[hSer][Yn3(4)]KF[Ygp(4)][Nle]PKKATELKHLQCLEEELKPLEEVL[hSer]LAQSKNFHLRPRDLISNINVIVLELKGSETTF[hSer]CEYADETATIVEFLNRWITFSQSIISTLT
12 | 5.31 | CMP-167, MMP2 cleaved molecule (ligand, ends and bridges not checked; also: MMP2 cleaved, cleavage site and linker fragments on N-terminus and Lys23 side chain not given here) APTSSSTKKTQLQLEHLLLDLQKILNGINNYKNPKLTR[Nle]L[hSer][Yn3]KF[Ygp][Nle]PKKATELKHLQCLEEELKPLEEVL[hSer]LAQSKNFHLRPRDLISNINVIVLELKGSETTF[hSer]CEYADETATIVEFLNRWITFSQSIISTLT
13 | 110 | CMP-304 (ligand, bridge N-29; not fully specified (N-terminus, bridges); ends not checked) PLGLAGAPTSSSTKKTQLQLEHLLLDLQEILNGINNYKNPKLTR[Nle]L[hSer][Yn3(4)]KF[Ygp(4)][Nle]PKKATELKHLQCLEEELKPLEEVL[hSer]LAQSKNFHLRPRDLISNINVIVLELKGSETTF[hSer]CEYADETATIVEFLNRWITFSQSIISTLT
14 | 57.4 | CMP-165 (ligand, bridge N-23; not fully specified (bridges); ends not checked; also: sequence of the cleavable peptide in the bridge not given here) APTSSSTKKTQLQLEHLLLDLQKILNGINNYKNPKLTR[Nle]L[hSer][Yn3]KF[Ygp][Nle]PKKATELKHLQCLEEELKPLEEVL[hSer]LAQSKNFHLRPRDLISNINVIVLELKGSETTF[hSer]CEYADETATIVEFLNRWITFSQSIISTLT
15 | 53.4 | CMP-169 (ligand, bridge 9-23; not fully specified (bridges); ends not checked; also: linker peptide sequence not given here) APTSSSTKKTQLQLEHLLLDLQEILNGINNYKNPKLTR[Nle]L[hSer][Yn3(4)]KF[Ygp(4)][Nle]PKKATELKHLQCLEEELKPLEEVL[hSer]LAQSKNFHLRPRDLISNINVIVLELKGSETTF[hSer]CEYADETATIVEFLNRWITFSQSIISTLT
16 | 4.36 | CMP-166, MMP2 cleaved molecule (ligand, ends and bridges not checked; also: MMP2 cleaved, cleavage site and linker fragments on N-terminus and Lys23 side chain not given here) APTSSSTKKTQLQLEHLLLDLQKILNGINNYKNPKLTR[Nle]L[hSer][Yn3]KF[Ygp][Nle]PKKATELKHLQCLEEELKPLEEVL[hSer]LAQSKNFHLRPRDLISNINVIVLELKGSETTF[hSer]CEYADETATIVEFLNRWITFSQSIISTLT
